Experimental data: patent US20210388087A1 (Chugai, published 2021)
Positions count from the first letter of the chain named. In names and notes the source's numbering stands.

T1: Human CD3eg linker (human)
T1 construct: Single chain: epsilon and gamma subunits of human CD3 joined by a 29-mer linker, Flag-tag at the C-terminus; also called recombinant human CD3
T1 chain: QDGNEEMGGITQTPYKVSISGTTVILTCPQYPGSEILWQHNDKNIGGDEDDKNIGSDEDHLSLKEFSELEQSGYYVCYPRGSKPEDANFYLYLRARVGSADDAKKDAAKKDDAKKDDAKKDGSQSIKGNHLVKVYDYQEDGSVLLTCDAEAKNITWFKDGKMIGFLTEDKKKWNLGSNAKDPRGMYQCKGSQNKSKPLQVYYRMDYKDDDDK

B1: H183/L072 VH M34H (antibody, name in Kabat numbering, V domains shown)
VH: QVQLVESGGGLVQPGRSLRLSCAASGFTFSNAWHHWVRQAPGKGLEWVAQIKDKGNAYAAYYAPSVKGRFTISRDDSKNSIYLQMNSLKTEDTAVYYCHYVHYASASTVLPAFGVDAWGQGTTVTVSS
VL: DIVMTQSPLSLPVTPGEPASISCQASQELVHMNRNTYLHWYQQKPGQAPRLLIYKVSNRFPGVPDRFSGSGSGTDFTLKISRVEAEDVGVYYCAQGTSVPFTFGQGTKLEIK
B2: H183/L072 VH N53P (antibody, name in Kabat numbering, V domains shown)
VH: B1 VH with H34M, N56P
VL: B1 VL
B3: H183/L072 VH N31E (antibody, name in Kabat numbering, V domains shown)
VH: B1 VH with N31E, H34M
VL: B1 VL
B4: H183/L072 VH N31D (antibody, name in Kabat numbering, V domains shown)
VH: B1 VH with N31D, H34M
VL: B1 VL
B5: H183/L072 VH N31P (antibody, name in Kabat numbering, V domains shown)
VH: B1 VH with N31P, H34M
VL: B1 VL
B6: H183/L072 VH N31K (antibody, name in Kabat numbering, V domains shown)
VH: B1 VH with N31K, H34M
VL: B1 VL
B7: H183/L072 VH N53S (antibody, name in Kabat numbering, V domains shown)
VH: B1 VH with H34M, N56S
VL: B1 VL
B8: H183/L072 VH N31G (antibody, name in Kabat numbering, V domains shown)
VH: B1 VH with N31G, H34M
VL: B1 VL
B9: H183/L072 VH N31A (antibody, name in Kabat numbering, V domains shown)
VH: B1 VH with N31A, H34M
VL: B1 VL
B10: H183/L072 VH N31Q (antibody, name in Kabat numbering, V domains shown)
VH: B1 VH with N31Q, H34M
VL: B1 VL
B11: H183/L072 VH N53D (antibody, name in Kabat numbering, V domains shown)
VH: B1 VH with H34M, N56D
VL: B1 VL
B12: H183/L072 VH N53R (antibody, name in Kabat numbering, V domains shown)
VH: B1 VH with H34M, N56R
VL: B1 VL
B13: H183/L072 VH N53G (antibody, name in Kabat numbering, V domains shown)
VH: B1 VH with H34M, N56G
VL: B1 VL
B14: H183/L072 VH N53H (antibody, name in Kabat numbering, V domains shown)
VH: B1 VH with H34M, N56H
VL: B1 VL
B15: H183/L072 VH M34P (antibody, name in Kabat numbering, V domains shown)
VH: B1 VH with H34P
VL: B1 VL
B16: H183/L072 VH M34Y (antibody, name in Kabat numbering, V domains shown)
VH: B1 VH with H34Y
VL: B1 VL
B17: H183/L072 VH N31F (antibody, name in Kabat numbering, V domains shown)
VH: B1 VH with N31F, H34M
VL: B1 VL
B18: H183/L072 VH N31I (antibody, name in Kabat numbering, V domains shown)
VH: B1 VH with N31I, H34M
VL: B1 VL
B19: H183/L072 VH N31T (antibody, name in Kabat numbering, V domains shown)
VH: B1 VH with N31T, H34M
VL: B1 VL
B20: H183/L072 VH M34I (antibody, name in Kabat numbering, V domains shown)
VH: B1 VH with H34I
VL: B1 VL
B21: H183/L072 VH M34Q (antibody, name in Kabat numbering, V domains shown)
VH: B1 VH with H34Q
VL: B1 VL
B22: H183/L072 VH N31L (antibody, name in Kabat numbering, V domains shown)
VH: B1 VH with N31L, H34M
VL: B1 VL
B23: H183/L072 VH M34N (antibody, name in Kabat numbering, V domains shown)
VH: B1 VH with H34N
VL: B1 VL
B24: H183/L072 VH N31R (antibody, name in Kabat numbering, V domains shown)
VH: B1 VH with N31R, H34M
VL: B1 VL
B25: H183/L072 VH M34K (antibody, name in Kabat numbering, V domains shown)
VH: B1 VH with H34K
VL: B1 VL
B26: H183/L072 VH N31V (antibody, name in Kabat numbering, V domains shown)
VH: B1 VH with N31V, H34M
VL: B1 VL
B27: H183/L072 VH N31M (antibody, name in Kabat numbering, V domains shown)
VH: B1 VH with N31M, H34M
VL: B1 VL
B28: H183/L072 VH M34V (antibody, name in Kabat numbering, V domains shown)
VH: B1 VH with H34V
VL: B1 VL
B29: H183/L072 VH N53A (antibody, name in Kabat numbering, V domains shown)
VH: B1 VH with H34M, N56A
VL: B1 VL
B30: H183/L072 VH N53I (antibody, name in Kabat numbering, V domains shown)
VH: B1 VH with H34M, N56I
VL: B1 VL
B31: H183/L072 VH M34T (antibody, name in Kabat numbering, V domains shown)
VH: B1 VH with H34T
VL: B1 VL
B32: H183/L072 VH N53Q (antibody, name in Kabat numbering, V domains shown)
VH: B1 VH with H34M, N56Q
VL: B1 VL
B33: H183/L072 VH N53M (antibody, name in Kabat numbering, V domains shown)
VH: B1 VH with H34M, N56M
VL: B1 VL
B34: H183/L072 VH N53F (antibody, name in Kabat numbering, V domains shown)
VH: B1 VH with H34M, N56F
VL: B1 VL
B35: H183/L072 VH N53E (antibody, name in Kabat numbering, V domains shown)
VH: B1 VH with H34M, N56E
VL: B1 VL
B36: H183/L072 VH N53L (antibody, name in Kabat numbering, V domains shown)
VH: B1 VH with H34M, N56L
VL: B1 VL
B37: H183/L072 VH N53K (antibody, name in Kabat numbering, V domains shown)
VH: B1 VH with H34M, N56K
VL: B1 VL
B38: H183/L072 VH N31W (antibody, name in Kabat numbering, V domains shown)
VH: B1 VH with N31W, H34M
VL: B1 VL
B39: H183/L072 VH M34S (antibody, name in Kabat numbering, V domains shown)
VH: B1 VH with H34S
VL: B1 VL
B40: H183/L072 VH M34W (antibody, name in Kabat numbering, V domains shown)
VH: B1 VH with H34W
VL: B1 VL
B41: H183/L072 VH N31H (antibody, name in Kabat numbering, V domains shown)
VH: B1 VH with N31H, H34M
VL: B1 VL
B42: H183/L072 VH M34L (antibody, name in Kabat numbering, V domains shown)
VH: B1 VH with H34L
VL: B1 VL
B43: H183/L072 VH N31S (antibody, name in Kabat numbering, V domains shown)
VH: B1 VH with N31S, H34M
VL: B1 VL
B44: H183/L072 VH M34R (antibody, name in Kabat numbering, V domains shown)
VH: B1 VH with H34R
VL: B1 VL
B45: H183/L072 VH N31Y (antibody, name in Kabat numbering, V domains shown)
VH: B1 VH with N31Y, H34M
VL: B1 VL

Target: T1, Human CD3eg linker
Experiment: Biacore SPR, vs template H183/L072

Row | Binder | fold change of affinity
1 | B1 | 0 fold
2 | B2 | 0 fold
3 | B3 | 0 fold
4 | B4 | 0.1 fold
5 | B5 | 0.1 fold
6 | B6 | 0.4 fold
7 | B7 | 0.8 fold
8 | B8 | 0.3 fold
9 | B9 | 0.4 fold
10 | B10 | 0.2 fold
11 | B11 | 0.4 fold
12 | B12 | 0.8 fold
13 | B13 | 0.4 fold
14 | B14 | 1.1 fold
15 | B15 | 0 fold
16 | B16 | 0 fold
17 | B17 | 0.5 fold
18 | B18 | 0.5 fold
19 | B19 | 0.6 fold
20 | B20 | 0.6 fold
21 | B21 | 0 fold
22 | B22 | 0.2 fold
23 | B23 | 0 fold

Row | Binder | fold change of affinity
24 | B24 | 0.5 fold
25 | B25 | 0 fold
26 | B26 | 0.5 fold
27 | B27 | 0.2 fold
28 | B28 | 0.1 fold
29 | B29 | 0.7 fold
30 | B30 | 0.4 fold
31 | B31 | 0 fold
32 | B32 | 0.5 fold
33 | B33 | 0.5 fold
34 | B34 | 0.8 fold
35 | B35 | 0.5 fold
36 | B36 | 0.6 fold
37 | B37 | 0.6 fold
38 | B38 | 0.4 fold
39 | B39 | 0 fold
40 | B40 | 0 fold
41 | B41 | 0.3 fold
42 | B42 | 0.7 fold
43 | B43 | 0.5 fold
44 | B44 | 0 fold
45 | B45 | 0.3 fold
